Data on 1 molecule can be found in paper PMC6003225 (Molecular Biology of the Cell, 2018).

Usually Kd stands for the free concentration of one partner at which half of the binding sites on the other are occupied at equilibrium, for simple one-to-one binding. A higher Kd goes with lower affinity.

The target in the experiment is T1, Danio rerio CPAP G-box domain (DrCPAP_(G-box), amino acids 943–1121) (Danio rerio, UniProt E7FCY1 943-1121).
T1 sequence (looked up): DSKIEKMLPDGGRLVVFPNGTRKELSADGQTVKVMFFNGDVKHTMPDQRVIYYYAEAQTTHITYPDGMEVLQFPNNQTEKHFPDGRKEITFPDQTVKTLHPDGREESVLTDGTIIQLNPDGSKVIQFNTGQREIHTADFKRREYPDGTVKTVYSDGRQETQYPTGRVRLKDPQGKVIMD
Put plainly: ITC. A general note: ITC needs no label: the signal is the heat of the interaction.

B1: C. elegans SAS-5 fragment corresponding to amino acids 2–122 (SAS-5N) (domain or fragment, UniProt Q20010 2-122, looked up)
chain: NNYDDLPCSIYFKKPTVQEFVDQPRVFEDSEVPAFQEVLQLPQERTKPPVPSTQPIVAAVEVAKKKSCLSAPKPRKEPPSHPALRQKTVAFGKTVNVSQTVEGTSRNSKKVLASTMSAQNT
Consider B1, for which the Kd was 34 ± 4 µM.
